± gives the uncertainty stated by the source.
Test: protein stability index of a GFP-peptide fusion (yeast GPS) (PSI 1-4); higher = more stable; sorted into four equal gates, so the index is relative within each strain
Procedure, shortened: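 Plasmids isolated from each sorting gate were PCR-amplified and Illumina-sequenced, and barcodes assigned the reads to strains. The gates, four of equal size, were set by GFP/Cherry fluorescence ratio on mid-log cultures in leucine-free medium. These cultures were yeast carrying a pooled library of tiled 17-residue yeast protein peptides fused downstream of GFP on a plasmid that also expresses Cherry. The protein stability index is the sum of every gate's read frequency times its gate number.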

For MTVNDQPIEKNGDKMPL [YJR042W/NUP85], the protein stability index (doa10∆) was 2.73 ± 0.066, the protein stability index (pdr5∆) was 3.04 ± 0.068 and the protein stability index (san1∆) was 2.45 ± 0.086. For the same sequence, the protein stability index (ubr1∆) was 3.1 ± 0.042.

With PIFDYIHIDALELAGMD [SIR3] the protein stability index (doa10∆) was 1.63 ± 0.053, the protein stability index (pdr5∆) was 1.79 ± 0.054 and the protein stability index (san1∆) was 2.05 ± 0.064. For the same sequence, the protein stability index (ubr1∆) was 2.17 ± 0.092.

HKLRESLPLIVFLRNRL [RPS4A] showed a protein stability index (doa10∆) of 1.85 ± 0.052, a protein stability index (pdr5∆) of 1.57 ± 0.053 and a protein stability index (san1∆) of 1.4 ± 0.1. The protein stability index (ubr1∆) was 1.43 ± 0.043.

GSNNAQTSRGLFGNNNT [YGL172W/NUP49] gave a protein stability index (doa10∆) of 3.24 ± 0.087, a protein stability index (pdr5∆) of 3.25 ± 0.074 and a protein stability index (san1∆) of 3.14 ± 0.046. The protein stability index (ubr1∆) was 3.16 ± 0.1.

VQLRYGDYDSHDISRYV [PRP8] gave a protein stability index (doa10∆) of 2.41 ± 0.062, a protein stability index (pdr5∆) of 2.46 ± 0.064 and a protein stability index (san1∆) of 2.69 ± 0.075. It also gave a protein stability index (ubr1∆) of 2.09 ± 0.044.

LRQLASYYSREQDALFI [RPN1] gave a protein stability index (doa10∆) of 1.7 ± 0.045, a protein stability index (pdr5∆) of 1.8 ± 0.046 and a protein stability index (san1∆) of 1.63 ± 0.08. The protein stability index (ubr1∆) was 1.81 ± 0.042.

AFEAELSNIPLLLITHH [ARP9] gave a protein stability index (doa10∆) of 1.49 ± 0.071, a protein stability index (pdr5∆) of 1.68 ± 0.072 and a protein stability index (san1∆) of 1.64 ± 0.089. For the same sequence, the protein stability index (ubr1∆) was 1.58 ± 0.066.

Sequence QRESQIGAAELNENARE [SNF12] has a protein stability index (doa10∆) of 3.22 ± 0.075, a protein stability index (pdr5∆) of 3.19 ± 0.063 and a protein stability index (san1∆) of 2.93 ± 0.12. It also gave a protein stability index (ubr1∆) of 3.35 ± 0.044.

GIEYNRVTNTTSTDFPG [RPC40] showed a protein stability index (doa10∆) of 3.33 ± 0.22, a protein stability index (pdr5∆) of 3.33 ± 0.14 and a protein stability index (san1∆) of 2.73 ± 0.082. The protein stability index (ubr1∆) was 2.94 ± 0.096.

In the case of SDNSEEEEVDIDMDKLN [RRP43], the protein stability index (doa10∆) is reported as 3.25 ± 0.069, the protein stability index (pdr5∆) is reported as 3.25 ± 0.071 and the protein stability index (san1∆) is reported as 3.4 ± 0.077. The protein stability index (ubr1∆) was 3.11 ± 0.05.

EKKDDNSSKPAFSFGAK [YJL041W/NSP1] gave a protein stability index (doa10∆) of 2.3 ± 0.054, a protein stability index (pdr5∆) of 1.86 ± 0.039 and a protein stability index (san1∆) of 2.02 ± 0.06. It also gave a protein stability index (ubr1∆) of 2.25 ± 0.037.

TNNVLRKLGLLGDKEDE [MTW1] gave a protein stability index (doa10∆) of 2.27 ± 0.048, a protein stability index (pdr5∆) of 2.35 ± 0.054 and a protein stability index (san1∆) of 1.85 ± 0.085. It also gave a protein stability index (ubr1∆) of 2.58 ± 0.049.

For KTDPAGYYVGYKATATG [SCL1], the protein stability index (doa10∆) was 2.98 ± 0.08, the protein stability index (pdr5∆) was 3.24 ± 0.065 and the protein stability index (san1∆) was 3.21 ± 0.065. For the same sequence, the protein stability index (ubr1∆) was 3.25 ± 0.1.

With NHFIFNVESAGAMTPEE [RPC40] the protein stability index (doa10∆) was 2.01 ± 0.059, the protein stability index (pdr5∆) was 2.02 ± 0.061 and the protein stability index (san1∆) was 2.4 ± 0.062. The protein stability index (ubr1∆) was 2.47 ± 0.045.

DGGLFTLFVRDQDSAVV [QCR2] gave a protein stability index (doa10∆) of 3.04 ± 0.11, a protein stability index (pdr5∆) of 3.16 ± 0.078 and a protein stability index (san1∆) of 3.25 ± 0.059. It also gave a protein stability index (ubr1∆) of 3.32 ± 0.057.

SFLESVIRDSVTYTEHA [HHF1] gave a protein stability index (doa10∆) of 2.82 ± 0.077, a protein stability index (pdr5∆) of 2.29 ± 0.064 and a protein stability index (san1∆) of 2.17 ± 0.058. For the same sequence, the protein stability index (ubr1∆) was 2.47 ± 0.049.

With EDDEFEDFPIDTWANGE [SEM1] the protein stability index (doa10∆) was 3.32 ± 0.098, the protein stability index (pdr5∆) was 3.26 ± 0.11 and the protein stability index (san1∆) was 2.85 ± 0.11. It also gave a protein stability index (ubr1∆) of 3.03 ± 0.078.

Sequence ATGNESQDATKVDATPE [YLR335W/NUP2] has a protein stability index (doa10∆) of 2.87 ± 0.086, a protein stability index (pdr5∆) of 3.22 ± 0.082 and a protein stability index (san1∆) of 3.04 ± 0.066. For the same sequence, the protein stability index (ubr1∆) was 2.94 ± 0.099.

Sequence TFVVEQLIKQSIKNNVA [SNU114] has a protein stability index (ubr1∆) of 2.38 ± 0.27.

In the case of MLKYRRLFIGDQNNKKM [SNF2], the protein stability index (doa10∆) is reported as 2.62 ± 0.097, the protein stability index (pdr5∆) is reported as 2.82 ± 0.073 and the protein stability index (san1∆) is reported as 2.47 ± 0.094. It also gave a protein stability index (ubr1∆) of 2.63 ± 0.057.

With TLVSTDNYFNLQLNEAE [SMX3] the protein stability index (doa10∆) was 2.94 ± 0.069, the protein stability index (pdr5∆) was 2.91 ± 0.059 and the protein stability index (san1∆) was 2.82 ± 0.053. For the same sequence, the protein stability index (ubr1∆) was 2.79 ± 0.048.

For QTIEMITQIVEKDFCTS [SRB8], the protein stability index (doa10∆) was 2.86 ± 0.054, the protein stability index (pdr5∆) was 3.08 ± 0.058 and the protein stability index (san1∆) was 2.93 ± 0.047. For the same sequence, the protein stability index (ubr1∆) was 3.02 ± 0.048.

Sequence NMTTIADRNDDDEGSFA [SRB6] has a protein stability index (doa10∆) of 3.72 ± 0.17, a protein stability index (pdr5∆) of 3.4 ± 0.3 and a protein stability index (san1∆) of 3.33 ± 0.094. It also gave a protein stability index (ubr1∆) of 3.44 ± 0.079.

SDSSKPAFSFGTKSNEK [YJL041W/NSP1] showed a protein stability index (doa10∆) of 2.97 ± 0.073, a protein stability index (pdr5∆) of 2.19 ± 0.058 and a protein stability index (san1∆) of 2.79 ± 0.076. It also gave a protein stability index (ubr1∆) of 2.75 ± 0.041.

SKSPSEWQDIIHQREQE [CSE2] showed a protein stability index (doa10∆) of 3.33 ± 0.16, a protein stability index (pdr5∆) of 3.31 ± 0.12 and a protein stability index (san1∆) of 3.25 ± 0.085. It also gave a protein stability index (ubr1∆) of 3.2 ± 0.14.

In the case of ELKDLETQVEVEKNEIG [NNF1], the protein stability index (doa10∆) is reported as 3.05 ± 0.19, the protein stability index (pdr5∆) is reported as 3.24 ± 0.11 and the protein stability index (san1∆) is reported as 2.97 ± 0.17. It also gave a protein stability index (ubr1∆) of 3.33 ± 0.13.

For LIAEESEDDSESGKVFI [RPB2], the protein stability index (doa10∆) was 3.03 ± 0.23, the protein stability index (pdr5∆) was 3.63 ± 0.29 and the protein stability index (san1∆) was 3.48 ± 0.29.

KAKKLIQSLPPTLKVNR [RPL38] gave a protein stability index (doa10∆) of 2.13 ± 0.039, a protein stability index (pdr5∆) of 2.18 ± 0.039 and a protein stability index (san1∆) of 2.02 ± 0.048. For the same sequence, the protein stability index (ubr1∆) was 2.27 ± 0.036.

With ENSEPPALESSPVTGDN [SNF2] the protein stability index (doa10∆) was 3.3 ± 0.075, the protein stability index (pdr5∆) was 3.24 ± 0.073 and the protein stability index (san1∆) was 3.19 ± 0.067. It also gave a protein stability index (ubr1∆) of 3.22 ± 0.062.

With SFGNREEFINKLVKSMN [RPL7A] the protein stability index (doa10∆) was 2.52 ± 0.11, the protein stability index (pdr5∆) was 2.6 ± 0.11 and the protein stability index (san1∆) was 2.29 ± 0.18. The protein stability index (ubr1∆) was 2.76 ± 0.071.

Sequence KWPEYVRLQRQKKILSI [RPL8B] has a protein stability index (doa10∆) of 1.18 ± 0.061, a protein stability index (pdr5∆) of 1.16 ± 0.056 and a protein stability index (san1∆) of 1.14 ± 0.098. The protein stability index (ubr1∆) was 1.17 ± 0.039.

AILVPMTVNDQPIEKNG [YJR042W/NUP85] gave a protein stability index (doa10∆) of 2.44 ± 0.11, a protein stability index (pdr5∆) of 1.79 ± 0.073 and a protein stability index (san1∆) of 2.84 ± 0.074. The protein stability index (ubr1∆) was 2.8 ± 0.079.

Sequence EIEQPVTTFVFTGQGSQ [FAS1] has a protein stability index (doa10∆) of 2.86 ± 0.1, a protein stability index (pdr5∆) of 2.91 ± 0.075 and a protein stability index (san1∆) of 2.49 ± 0.14. It also gave a protein stability index (ubr1∆) of 2.24 ± 0.066.

In the case of NLGEYYAQIGDKDNAEK [RPN7], the protein stability index (doa10∆) is reported as 1.92 ± 0.056, the protein stability index (pdr5∆) is reported as 2.05 ± 0.075 and the protein stability index (san1∆) is reported as 2.49 ± 0.087. The protein stability index (ubr1∆) was 2.47 ± 0.053.

MDSKGKITIGIQRTTES [RGR1] showed a protein stability index (doa10∆) of 3.44 ± 0.075, a protein stability index (pdr5∆) of 3.39 ± 0.066 and a protein stability index (san1∆) of 3.33 ± 0.083. For the same sequence, the protein stability index (ubr1∆) was 3.11 ± 0.075.

VLKVYSMINNSNQAVGQ [SRB8] gave a protein stability index (doa10∆) of 2.85 ± 0.07, a protein stability index (pdr5∆) of 2.78 ± 0.065 and a protein stability index (san1∆) of 2.83 ± 0.067. It also gave a protein stability index (ubr1∆) of 2.63 ± 0.051.

For TPPDDLHPYVPSSKPQE [SRB8], the protein stability index (doa10∆) was 2.71 ± 0.081, the protein stability index (pdr5∆) was 2.98 ± 0.073 and the protein stability index (san1∆) was 2.93 ± 0.048. For the same sequence, the protein stability index (ubr1∆) was 3.07 ± 0.049.

With QTLGLESFTEELSNELS [MED1] the protein stability index (doa10∆) was 3.29 ± 0.064, the protein stability index (pdr5∆) was 3.1 ± 0.051 and the protein stability index (san1∆) was 3.06 ± 0.05. The protein stability index (ubr1∆) was 3 ± 0.037.

TFLSEWGMEPLEDYVPH [RPB2] showed a protein stability index (doa10∆) of 3.17 ± 0.1, a protein stability index (pdr5∆) of 3.71 ± 0.23 and a protein stability index (san1∆) of 3.13 ± 0.12. It also gave a protein stability index (ubr1∆) of 2.81 ± 0.14.

Work on PTPAIIKPKPLWSGKQI [RPO21] yielded a protein stability index (doa10∆) of 2 ± 0.11, a protein stability index (pdr5∆) of 2.5 ± 0.093 and a protein stability index (san1∆) of 2.48 ± 0.08. The protein stability index (ubr1∆) was 2.54 ± 0.098.

LFNNHLNGILADEMGLG [SNF2] showed a protein stability index (doa10∆) of 2.83 ± 0.11, a protein stability index (pdr5∆) of 2.64 ± 0.1 and a protein stability index (san1∆) of 3.28 ± 0.068. The protein stability index (ubr1∆) was 2.59 ± 0.092.

With VSMITDHNALPQRCTFA [POP1] the protein stability index (doa10∆) was 2.97 ± 0.18, the protein stability index (pdr5∆) was 3.01 ± 0.11 and the protein stability index (san1∆) was 2.3 ± 0.18. The protein stability index (ubr1∆) was 2.73 ± 0.13.

YVEAQHKLVFVVRIKGI [RPL7A] showed a protein stability index (doa10∆) of 1.09 ± 0.058, a protein stability index (pdr5∆) of 1.19 ± 0.054 and a protein stability index (san1∆) of 1.25 ± 0.094. For the same sequence, the protein stability index (ubr1∆) was 1.21 ± 0.053.

In the case of MLETAGFSMNNPYNIVP [SMC3], the protein stability index (doa10∆) is reported as 3.17 ± 0.11, the protein stability index (pdr5∆) is reported as 3.18 ± 0.09 and the protein stability index (san1∆) is reported as 3.19 ± 0.07. For the same sequence, the protein stability index (ubr1∆) was 3.09 ± 0.051.

From the supplement of paper PMC9732359
